Results taken from IntAct's records for PubMed 29039417.

B1: BBSome complex member BBS2 (Homo sapiens), Q9BXC9 (parent)
chain: MLLPVFTLKLRHKISPRMVAIGRYDGTHPCLAAATQTGKVFIHNPHTRNQHVSASRVFQSPLESDVSLLSINQAVSCLTAGVLNPELGYDALLVGTQTNLLAYDVYNNSDLFYREVADGANAIVLGTLGDISSPLAIIGGNCALQGFNHEGSDLFWTVTGDNVNSLALCDFDGDGKKELLVGSEDFDIRVFKEDEIVAEMTETEIVTSLCPMYGSRFGYALSNGTVGVYDKTSRYWRIKSKNHAMSIHAFDLNSDGVNELITGWSNGKVDARSDRTGEVIFKDNFSSAIAGVVEGDYRMDGHIQLICCSVDGEIRGYLPGTAEMRGNLMDTSAEQDLIRELSQKKQNLLLELRNYEENAKAELASPLNEADGHRGIIPANTRLHTTLSVSLGNETQTAHTELRISTSNDTIIRAVLIFAEGIFTGESHVVHPSIHNLSSSICIPIVPPKDVPVDLHLKAFVGYRSSTQFHVFESTRQLPRFSMYALTSLDPASEPISYVNFTIAERAQRVVVWLGQNFLLPEDTHIQNAPFQVCFTSLRNGGHLHIKIKLSGEITINTDDIDLAGDIIQSMASFFAIEDLQVEADFPVYFEELRKVLVKVDEYHSVHQKLSADMADHSNLIRSLLVGAEDARLMRDMKTMKSRYMELYDLNRDLLNGYKIRCNNHTELLGNLKAVNQAIQRAGRLRVGKPKNQVITACRDAIRSNNINTLFKIMRVGTASS
partner: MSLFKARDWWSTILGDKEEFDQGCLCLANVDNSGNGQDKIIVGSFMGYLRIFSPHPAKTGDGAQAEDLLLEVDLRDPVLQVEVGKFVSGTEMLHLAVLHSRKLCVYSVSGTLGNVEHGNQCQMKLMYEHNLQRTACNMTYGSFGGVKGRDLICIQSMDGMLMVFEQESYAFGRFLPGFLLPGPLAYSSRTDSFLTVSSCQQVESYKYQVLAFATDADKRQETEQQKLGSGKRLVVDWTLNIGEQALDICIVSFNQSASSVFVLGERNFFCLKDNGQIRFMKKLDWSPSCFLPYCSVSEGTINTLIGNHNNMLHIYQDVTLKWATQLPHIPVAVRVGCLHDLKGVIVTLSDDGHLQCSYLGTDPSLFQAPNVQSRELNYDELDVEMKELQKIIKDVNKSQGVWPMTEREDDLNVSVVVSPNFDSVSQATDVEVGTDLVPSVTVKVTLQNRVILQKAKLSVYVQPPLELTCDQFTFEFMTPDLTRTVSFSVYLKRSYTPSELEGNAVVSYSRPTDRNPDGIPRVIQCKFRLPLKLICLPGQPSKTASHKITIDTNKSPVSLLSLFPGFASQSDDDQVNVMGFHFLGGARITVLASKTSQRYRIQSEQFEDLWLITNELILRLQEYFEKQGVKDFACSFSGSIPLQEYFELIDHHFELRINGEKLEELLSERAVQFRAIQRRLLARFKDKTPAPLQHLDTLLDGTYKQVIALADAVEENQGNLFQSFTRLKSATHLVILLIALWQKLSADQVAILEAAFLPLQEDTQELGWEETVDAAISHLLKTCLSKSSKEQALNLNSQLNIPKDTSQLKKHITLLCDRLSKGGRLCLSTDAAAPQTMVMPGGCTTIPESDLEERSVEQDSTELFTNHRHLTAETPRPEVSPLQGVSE

Variants of: B1
Conditions: with pthb1_human BBS9, Q3SYG4

effect of a mutation on the interaction	Variant
with no effect	Y463E
with no effect	Y463K
with no effect	Y463A
disrupting interaction strength	S466E
with no effect	S466K
with no effect	S466A
disrupting interaction strength	V453K
with no effect	V453A
with no effect	V453E
with no effect	G425A
with no effect	G425K
with no effect	G425E
with no effect	E426A
with no effect	E426K
disrupting interaction strength	L455K
with no effect	L455A
disrupting interaction strength	L455P
disrupting interaction strength	V430A
with no effect	V430K
with no effect	V430E
with no effect	H435K
with no effect	H435E
with no effect	H435A
disrupting interaction strength	I443A
disrupting interaction strength	I443K

effect of a mutation on the interaction	Variant
disrupting interaction strength	I443E
with no effect	L416E
with no effect	L416A
with no effect	L416K
with no effect	T424K
with no effect	T424E
with no effect	T424A
with no effect	S427K
with no effect	S427E
with no effect	S427A
with no effect	V446A
with no effect	V446E
with no effect	V446K
with no effect	V451A
with no effect	V451K
with no effect	V451E
disrupting interaction strength	A459T
disrupting interaction strength	A459E
disrupting interaction strength	A459K
with no effect	S438A
disrupting interaction strength	S438F
with no effect	S438K
with no effect	S438E
with no effect	R464E
with no effect	R464A

effect of a mutation on the interaction	Variant
with no effect	R464K
with no effect	T467K
with no effect	T467E
with no effect	T467A
with no effect	P448A
with no effect	P448E
with no effect	P448K
with no effect	G462E
with no effect	G462K
disrupting interaction strength	G462D
with no effect	G462A
disrupting interaction strength	G462S
with no effect	V415A
with no effect	V415K
with no effect	V415E
with no effect	H456E
with no effect	H456K
with no effect	H456A
with no effect	D454E
with no effect	D454A
with no effect	D454K
with no effect	P452K
with no effect	P452E
with no effect	P452A
with no effect	S440E

effect of a mutation on the interaction	Variant
with no effect	S440A
with no effect	S440K
with no effect	H431E
disrupting interaction strength	H431R
with no effect	H431K
with no effect	H431A
with no effect	C442A
with no effect	C442K
with no effect	C442E
with no effect	N436E
with no effect	N436A
with no effect	N436K
with no effect	I441K
with no effect	I441E
with no effect	I441A
with no effect	K449A
disrupting interaction strength	K449R
with no effect	K449E
disrupting interaction strength	S439N
disrupting interaction strength	S439E
disrupting interaction strength	S439A
with no effect	S439K
with no effect	P447E
with no effect	P447A
with no effect	P447K

effect of a mutation on the interaction	Variant
with no effect	L437A
disrupting interaction strength	L437K
with no effect	L437E
with no effect	A419E
with no effect	A419K
disrupting interaction strength	L457C
with no effect	L457A
disrupting interaction strength	L457E
disrupting interaction strength	L457K
with no effect	G421E
with no effect	G421K
with no effect	G421A
with no effect	P444E
with no effect	P444K
with no effect	P444A
disrupting interaction strength	I445E
disrupting interaction strength	I445K
disrupting interaction strength	I445Q
disrupting interaction strength	I445A
disrupting interaction strength	I445T
disrupting interaction strength	P432L
with no effect	P432A
with no effect	P432K
with no effect	P432E
with no effect	Q468A

effect of a mutation on the interaction	Variant
with no effect	Q468E
with no effect	Q468K
with no effect	D450K
disrupting interaction strength	D450L
with no effect	D450E
with no effect	D450A
with no effect	I422A
with no effect	I422E
with no effect	I422K
with no effect	I434E
with no effect	I434K
with no effect	I434A
with no effect	E420K
with no effect	E420A
with no effect	K458A
with no effect	K458E
with no effect	F418K
with no effect	F418A
with no effect	F418E
with no effect	S433E
with no effect	S433K
with no effect	S433A
with no effect	F423E
with no effect	F423A
with no effect	F423K

effect of a mutation on the interaction	Variant
with no effect	H428A
with no effect	H428K
with no effect	H428E
disrupting interaction strength	V461M
disrupting interaction strength	V461K
disrupting interaction strength	V461E
disrupting interaction strength	V461A
with no effect	I417A
with no effect	I417E
with no effect	I417K
disrupting interaction strength	F460A
with no effect	F460K
disrupting interaction strength	F460E
with no effect	V429K
with no effect	V429E
with no effect	V429A
with no effect	S465E
with no effect	S465K
with no effect	S465A
